In article PMC1807944:
Read-outs that look alike come from different tables or passages of the source.

Experiments:
Experiment in all cases: SAXS titration
[1] = biological target: T1, HIV-1 integrase (IN), monomer E (HIV-1, UniProt P04585 1148-1435)
[2] = biological target: T1, HIV-1 integrase (IN), monomer E; remark: listed apart in the source
[3] = biological target: T1, HIV-1 integrase (IN), monomer E; remark: listed apart in the source

| Binder | Kd [1] [µM] | further results |
| --- | --- | --- |
| GCAGT (ssDNA) [ss GCAGT] | 7.1 ± 0.7 | – |
| GTGTGGAAAATCTCTAGCAGT (ssDNA) [ss 21-GT] | – | Kd [2]: 10.6 ± 10 nM |
| GTGTGGAAAATCTCTAGCA (ssDNA) [ss 19-CA] | – | Kd [3]: 30 ± 15 nM |
| AAAAA (ssDNA) [ss A5] | 2.6 ± 0.4 | – |
